The values that follow come from patent US20090298769.

Series [1] has as its system control peptide DTANNPLF KEATSTFT-COOH.
Series [2] relates to β3 integrin cytoplasmic peptide specific for tyrosine-759 (KEATSTFTNITYpRGT-COOH).
Series [3] deals with control peptide KEATSTFTNIT FRGTCOOH
For series [4], the system named is β3 integrin cytoplasmic peptide specific for tyrosine-747 (DTANNPLYpKEATSTFT-COOH).
Series [5] has as its system recombinant β3 integrin cytoplasmic tail-GST fusion protein.

For c-Src of HUVEC (endogenous), the “[γ-32P] ATP incorporation, in vitro kinase assay (control peptide, lower incorporation)” value in series [1] and in series [3] was “a dramatic increase in [γ-^32P] ATP incorporation was observed as compared to control peptides devoid of tyrosine motifs” in each case. Moreover, the “[γ-32P] ATP incorporation, in vitro kinase assay” value in series [2] is “In the presence of Tyr-747/Tyr-759 β3 integrin cytoplasmic peptide, a dramatic increase in [γ-^32P] ATP incorporation was observed as compared to control peptides devoid of tyrosine motifs”; in series [4], “In the presence of Tyr-747/Tyr-759 β3 integrin cytoplasmic peptide, a dramatic increase in [γ-^32P] ATP incorporation was observed as compared to control peptides devoid of tyrosine motifs”; in series [5] it was “the immunoprecipitated c-Src can phosphorylate β3 integrin cytoplasmic domain”.
As to purified, recombinant full-length c-Src, in series [5], the “[γ-32P] ATP incorporation, in vitro kinase assay” value is on record as “Recombinant purified c-Src also phosphorylated the β3 integrin whereas no phosphorylation was observed without the substrate”.
